The source of these data is US20100273669A1.

In the test the target is MBP2-ISEF-N1G1N2-(…)-NVDE1-184-…-FKBP2-GSRS-6His (bacteriophage M13; yeast; human) (UniProt P69168). The experiment in a line: cell-based or functional assay.
Sequence of MBP2-ISEF-N1G1N2-(…)-NVDE1-184-…-FKBP2-GSRS-6His (bacteriophage M13; yeast; human) (P69168 19-265, tags or fused parts left off): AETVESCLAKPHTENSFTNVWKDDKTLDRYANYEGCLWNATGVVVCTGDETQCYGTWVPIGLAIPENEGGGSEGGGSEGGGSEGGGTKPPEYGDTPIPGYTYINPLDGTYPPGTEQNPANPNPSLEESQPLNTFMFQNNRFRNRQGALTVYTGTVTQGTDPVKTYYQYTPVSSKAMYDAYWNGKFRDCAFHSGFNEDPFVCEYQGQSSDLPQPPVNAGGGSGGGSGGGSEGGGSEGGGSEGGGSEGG

Consider “phage displaying the fusion protein FRB-TS-CVDE390-454-GSGGGS-CTg3p (from UniProt P42345 2021-2113; P17255 390-454)”, for which the phages recovering infecting ability counted as colony forming units, with against without rapamycin (10 µM) was found to be 100 times.
